Key:
Lewis-lung tumor = assay: Prevention of tumor metastasis (Lewis-lung tumor implanted in mice); type: in vivo, C57BL-6 mice; conditions: for Inhibition ratio (%) (number of tumor colonies) / Inhibition ratio (%) (weight of lung tumor) / Mean number of tumor colonies / Mean weight of lung tumor: 2 mg/kg i.v.
Description: 10^6 cells of Lewis-lung tumor were implanted onto the foot of a number of C57BL-6 mice, and the implanted tumor was removed at seventh day after the transplantation (n=7).
The modified SOD (m-SOD) obtained in Example 1 was dissolved in a saline solution (5 mg by SOD content in 1 ml saline solution). To the mice, the modified SOD solution (2 mg by SOD content per kg) was injected intravenously once a day for 5 days from the seventh day or fourteenth day after the transplantation.
On the 22nd day after the transplantation, the lungs were taken out and the number of colonies of metastasizing cells was determined. The inhibition of the metastasis was evaluated by the decrease of the number of colonies and the weight of metastasizing lung tumor.

superoxide dismutase [1] = target: superoxide dismutase (Bos taurus, UniProt P00442); assay: SOD enzyme activity by the method of McCord et al (residual activity vs starting SOD); type: biochemical, bovine; human
Description: (§1) The residual activity was obtained by the following method.
(§2) The concentration of each enzyme was obtained by the absorption method as mentioned above, and the residual activity was calculated from a comparison in activity after the reaction.

superoxide dismutase [2] = assay: as above; type: biochemical, bovine; human
Description: as §1, §2

[3] = Survival of SOD activity in the blood circulation (plasma SOD activity after i.v. infusion); type: in vivo, Wister rats; conditions: for Half life (half survival time of SOD activity in the circulation) / Time to 30% residual activity: 20 mg SOD content/kg, femoral vein, rats
Description: For each stabilized SOD obtained in the Examples, the survival time in the blood circulation was measured as follows. Four Wister rats, seven weeks old and weighing 249 to 277 g, were used for each sample. The rats were infused with 20 mg of the sample (20 mg SOD content for the modified SOD; 5 mg per rat) dissolved in a saline solution (0.5 ml per rat) per kg of body weight through the femoral vein, and samples of blood, each 0.2 ml, were withdrawn 5, 15 and 30 minutes and 1, 2, 4, 8, 24 and 48 hours after the injection. Each blood sample was centrifuged, and the SOD activity of the plasma was determined by the method of J. M. McCord et al (J. Biol. Chem.,.244, No. 22, 6049-55, 1969).

superoxide dismutase [4] = conditions: starting material as purchased; cited from earlier work

superoxide dismutase (Bos taurus, UniProt P00442), sequence (P00442 2-152 limits assumed): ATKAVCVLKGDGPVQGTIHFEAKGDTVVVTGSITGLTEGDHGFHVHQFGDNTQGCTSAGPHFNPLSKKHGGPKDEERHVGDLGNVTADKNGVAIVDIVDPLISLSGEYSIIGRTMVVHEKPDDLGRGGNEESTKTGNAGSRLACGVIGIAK

Substance	Inhibition ratio (%) (number of tumor colonies) (Lewis-lung tumor; 5 injections after 7th day)	Inhibition ratio (%) (weight of lung tumor) (Lewis-lung tumor; 5 injections after 7th day)	Mean number of tumor colonies (Lewis-lung tumor; 5 injections after 7th day)	Mean weight of lung tumor (Lewis-lung tumor; 5 injections after 7th day)	Inhibition ratio (%) (number of tumor colonies) (Lewis-lung tumor; 5 injections after 14th day)	Inhibition ratio (%) (weight of lung tumor) (Lewis-lung tumor; 5 injections after 14th day)	Mean number of tumor colonies (Lewis-lung tumor; 5 injections after 14th day)	Mean weight of lung tumor (Lewis-lung tumor; 5 injections after 14th day)	number of colonies as compared to the non-treated mice (Lewis-lung tumor; "decreased below 40%")	weight of tumor as compared to the non-treated mice (Lewis-lung tumor; "decreased below 40%")	total activity (superoxide dismutase [1]; freeze-dried stabilized SOD)	total activity (superoxide dismutase [1]; reaction mixture after completion of the reaction)	residual activity (superoxide dismutase [1]; reaction mixture after completion of the reaction, in comparison with the original SOD)	Residual enzyme activity (%) (superoxide dismutase [2]; Table 1, stabilized SOD of Examples)	residual activity (superoxide dismutase [2]; isolated stabilized SOD, text of Examples)	Half life (half survival time of SOD activity in the circulation) [3]	Time to 30% residual activity [3]	activity in the blood circulation with time ([3]; FIG. 5)	specific activity of purchased SOD (superoxide dismutase [4])
Example 1: bovine SOD amide-linked to α-carboxymethyl, ω-carboxymethoxy polyoxyethylene (molecular weight about 4000), 2.4 molecules per enzyme	65%	66%	10.5	0.15 g	72%	77%	8.4	0.10 g	below 40%	below 40%	236000 units	285000 units	95±5%	95%	95%	240 min	10 h	rapidly reduces after a few hours from the adminstration, and then it reduces slowly	–
human SOD: SOD derived from human erythrocyte purchased from Sigma Co.	–	–	–	–	–	–	–	–	–	–	–	–	–	–	–	6 min	0.15 h	–	2300 units/mg
bovine SOD: Superoxide dismutase derived from a bovine blood produced by Toyobo Co., Japan	–	–	–	–	–	–	–	–	–	–	–	–	–	–	–	6 min	0.15 h	–	3000 units/mg
